Test results from PMC8523820.

Columns and labels:
[1] = molecular target: mouse ASIC1a channel (mouse (endogenous in C57BL/6 striatal neurons)) (UniProt Q6NXK8)
[2] = molecular target: human ASIC1a channel (human (endogenous in HEK293)) (UniProt P78348)
[3] = molecular target: eGFP-ASIC1a (rat ASIC1a subunit fused to eGFP) (rat) (UniProt P55926)
[4] = molecular target: mouse ASIC1a channel (mouse (endogenous in C57BL/6 striatal neurons)) (UniProt Q6NXK8); remark: listed apart in the source
[5] = molecular target: human ASIC1a channel (human (endogenous in HEK293)) (UniProt P78348); remark: listed apart in the source
[6] = molecular target: eGFP-ASIC1a (rat ASIC1a subunit fused to eGFP) (rat) (UniProt P55926); remark: listed apart in the source

UniProt P55926, sequence (P55926 whole entry, the tested form may be a part): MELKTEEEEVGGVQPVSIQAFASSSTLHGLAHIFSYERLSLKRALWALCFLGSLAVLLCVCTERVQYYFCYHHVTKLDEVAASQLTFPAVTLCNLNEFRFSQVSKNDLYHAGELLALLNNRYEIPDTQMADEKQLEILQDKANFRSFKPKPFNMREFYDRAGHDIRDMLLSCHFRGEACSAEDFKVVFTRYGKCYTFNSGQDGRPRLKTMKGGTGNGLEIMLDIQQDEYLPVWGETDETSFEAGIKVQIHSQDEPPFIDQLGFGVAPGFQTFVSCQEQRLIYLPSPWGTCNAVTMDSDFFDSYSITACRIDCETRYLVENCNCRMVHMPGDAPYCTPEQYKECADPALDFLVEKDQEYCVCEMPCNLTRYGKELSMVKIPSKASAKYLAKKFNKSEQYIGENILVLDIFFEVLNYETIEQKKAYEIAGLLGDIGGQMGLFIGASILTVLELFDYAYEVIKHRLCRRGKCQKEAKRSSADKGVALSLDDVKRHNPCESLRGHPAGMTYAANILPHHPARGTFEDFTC
UniProt P78348, sequence (P78348 whole entry, the tested form may be a part): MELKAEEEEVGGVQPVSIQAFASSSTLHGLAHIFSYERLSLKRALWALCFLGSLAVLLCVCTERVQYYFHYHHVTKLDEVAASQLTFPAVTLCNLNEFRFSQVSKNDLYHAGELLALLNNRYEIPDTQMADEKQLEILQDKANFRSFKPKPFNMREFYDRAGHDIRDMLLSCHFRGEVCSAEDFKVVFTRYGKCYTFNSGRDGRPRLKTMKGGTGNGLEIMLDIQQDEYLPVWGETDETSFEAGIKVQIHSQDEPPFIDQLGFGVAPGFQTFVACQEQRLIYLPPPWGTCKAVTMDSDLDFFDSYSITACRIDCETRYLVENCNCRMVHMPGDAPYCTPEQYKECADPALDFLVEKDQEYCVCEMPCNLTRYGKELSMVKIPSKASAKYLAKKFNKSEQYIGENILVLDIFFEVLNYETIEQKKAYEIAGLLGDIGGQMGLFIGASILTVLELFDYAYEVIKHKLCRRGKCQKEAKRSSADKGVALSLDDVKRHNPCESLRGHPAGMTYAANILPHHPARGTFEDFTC
UniProt Q6NXK8, sequence (Q6NXK8 whole entry): as the sequence (P55926 whole entry, the tested form may be a part) above, with S476N counted along it

Substance: MitTx (complex)
- pERK/tERK relative to control, Western blot of lysates of mouse striatal neurons treated with 20 nM MitTx for 2 min (fold of control) [1]: 5.39
- pERK/tERK relative to control, Western blot of lysates of HEK cells treated with 20 nM MitTx for 2 to 10 min (7.98 at 2 min, 10.90 at 10 min) (fold of control) [2]: 10.9
- pERK/tERK relative to untreated eASICx1 cells, Western blot of HEK cells transfected with eGFP-ASIC1a (x1) and treated with MitTx (fold of eASICx1 levels) [3]: 3.42
- pERK/tERK relative to untreated eASICx1 cells, Western blot of HEK cells transfected with eGFP-ASIC1a (x3) and treated with MitTx (fold of eASICx1 levels) [3]: 9.96
- pCaMKII/Tub relative to control, Western blot of lysates of mouse striatal neurons treated with 20 nM MitTx for 2 min (fold of control) [4]: 6.37
- pCaMKII/Tub relative to control, HEK cells pre-incubated with 20 nM Pctx-1 for 30 min, then MitTx for 2 min (fold of control) [5]: 1.17
- pCaMKII/Tub relative to control, Western blot of lysates of HEK cells treated with 20 nM MitTx for 2 to 10 min (8.88 at 2 min, 10.76 at 10 min) (fold of control) [5]: 10.8
- pERK/tERK relative to control, HEK cells pre-incubated with 20 nM Pctx-1 for 30 min, then MitTx for 2 to 10 min (1.18 at 2 min, 1.42 at 10 min) (fold of control) [5]: 1.42
- pERK/tERK relative to untreated eASICx1 cells, HEK cells transfected with eGFP-ASIC1a (x1), pre-incubated with Pctx-1, then MitTx (fold of eASICx1 levels) [6]: 1.1
